This is an account of results in the supplement of paper PMC5998384.

The data set concerns HeLa Kyoto. In words: thermal stability score vs G1/S (z-score of summed log2 fold changes over temperatures); higher = more thermally stable than in G1/S.
Setting [1] is: cell cycle stage: early G1 (4.5 h after nocodazole release).
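Note: synchronized HeLa Kyoto cells, proteins quantified by TMT10plex mass spectrometry, three biological replicates, mitosis taken 0.5 h after nocodazole release, G1/S directly after double thymidine block.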

Consider “MCFSFIMPPAMADILDIWAVDSQIASDGSIPVDFLLPTGIYIQLEVPREATISYIKQMLWKQVHNYPMFNLLMDIDSYMFACVNQTAVYEELEDETRRLCDVRPFLPVLKLVTRSCDPGEKLDSKIGVLIGKGLHEFDSLKDPEVNEFRRKMRKFSEEKILSLVGLSWMDWLKQTYPPEHEPSIPENLEDKLYGGKLIVAVHFENCQDVFSFQVSPNMNPIKVNELAIQKRLTIHGKEDEVSPYDYVLQVSGRVEYVFGDHPLIQFQYIRNCVMNRALPHFILVECCKIKKMYEQEMIAIEAAINRNSSNLPLPLPPKKTRIISHVWENNNPFQIVLVKGNKLNTEETVKVHVRAGLFHGTELLCKTIVSSEVSGKNDHIWNEPLEFDINICDLPRMARLCFAVYAVLDKVKTKKSTKTINPSKYQTIRKAGKVHYPVAWVNTMVFDFKGQLRTGDIILHSWSSFPDELEEMLNPMGTVQTNPYTENATALHVKFPENKKQPYYYPPFDKIIEKAAEIASSDSANVSSRGGKKFLPVLKEILDRDPLSQLCENEMDLIWTLRQDCREIFPQSLPKLLLSIKWNKLEDVAQLQALLQIWPKLPPREALELLDFNYPDQYVREYAVGCLRQMSDEELSQYLLQLVQVLKYEPFLDCALSRFLLERALGNRRIGQFLFWHLRSEVHIPAVSVQFGVILEAYCRGSVGHMKVLSKQVEALNKLKTLNSLIKLNAVKLNRAKGKEAMHTCLKQSAYREALSDLQSPLNPCVILSELYVEKCKYMDSKMKPLWLVYNNKVFGEDSVGVIFKNGDDLRQDMLTLQMLRLMDLLWKEAGLDLRMLPYGCLATGDRSGLIEVVSTSETIADIQLNSSNVAAAAAFNKDALLNWLKEYNSGDDLDRAIEEFTLSCAGYCVASYVLGIGDRHSDNIMVKKTGQLFHIDFGHILGNFKSKFGIKRERVPFILTYDFIHVIQQGKTGNTEKFGRFRQCCEDAYLILRRHGNLFITLFALMLTAGLPELTSVKDIQYLKDSLALGKSEEEALKQFKQKFDEALRESWTTKVNWMAHTVRKDYRS [PIK3CB]”, for which the thermal stability score under setting [1] stood at 0.304 and the thermal stability score (cell cycle stage: mitosis) amounted to 0.592.
The like results for “MEINTKLLISVTCISFFTFQLLFYFVSYWFSAKVSPGFNSLSFKKKIEWNSRVVSTCHSLVVGIFGLYIFLFDEATKADPLWGGPSLANVNIAIASGYLISDLSIIILYWKVIGDKFFIMHHCASLYAYYLVLKNGVLAYIGNFRLLAELSSPFVNQRWFFEALKYPKFSKAIVINGILMTVVFFIVRIASMLPHYGFMYSVYGTEPYIRLGVLIQLSWVISCVVLDVMNVMWMIKISKGCIKVISHIRQEKAKNSLQNGKLD [TMEM56]” were, in that order, 0.000211 and -0.867.
In the case of “MFPREKTWNISFAGCGFLGVYYVGVASCLREHAPFLVANATHIYGASAGALTATALVTGVCLGEAGAKFIEVSKEARKRFLGPLHPSFNLVKIIRSFLLKVLPADSHEHASGRLGISLTRVSDGENVIISHFNSKDELIQANVCSGFIPVYCGLIPPSLQGVRYVDGGISDNLPLYELKNTITVSPFSGESDICPQDSSTNIHELRVTNTSIQFNLRNLYRLSKALFPPEPLVLREMCKQGYRDGLRFLQRNGLLNRPNPLLALPPARPHGPEDKDQAVESAQAEDYSQLPGEDHILEHLPARLNEALLEACVEPTDLLTTLSNMLPVRLATAMMVPYTLPLESALSFTIRLLEWLPDVPEDIRWMKEQTGSICQYLVMRAKRKLGRHLPSRLPEQVELRRVQSLPSVPLSCAAYREALPGWMRNNLSLGDALAKWEECQRQLLLGLFCTNVAFPPEALRMRAPADPAPAPADPASPQHQLAGPAPLLSTPAPEARPVIGALGL [PNPLA2]”, the thermal stability score reads like this: under setting [1], -0.911; (cell cycle stage: mitosis) 1.32.
For the sequence “MGPEALSSLLLLLLVASGDADMKGHFDPAKCRYALGMQDRTIPDSDISASSSWSDSTAARHSRLESSDGDGAWCPAGSVFPKEEEYLQVDLQRLHLVALVGTQGRHAGGLGKEFSRSYRLRYSRDGRRWMGWKDRWGQEVISGNEDPEGVVLKDLGPPMVARLVRFYPRADRVMSVCLRVELYGCLWRDGLLSYTAPVGQTMYLSEAVYLNDSTYDGHTVGGLQYGGLGQLADGVVGLDDFRKSQELRVWPGYDYVGWSNHSFSSGYVEMEFEFDRLRAFQAMQVHCNNMHTLGARLPGGVECRFRRGPAMAWEGEPMRHNLGGNLGDPRARAVSVPLGGRVARFLQCRFLFAGPWLLFSEISFISDVVNNSSPALGGTFPPAPWWPPGPPPTNFSSLELEPRGQQPVAKAEGSPTAILIGCLVAIILLLLLIIALMLWRLHWRRLLSKAERRVLEEELTVHLSVPGDTILINNRPGPREPPPYQEPRPRGNPPHSAPCVPNGSALLLSNPAYRLLLATYARPPRGPGPPTPAWAKPTNTQAYSGDYMEPEKPGAPLLPPPPQNSVPHYAEADIVTLQGVTGGNTYAVPALPPGAVGDGPPRVDFPRSRLRFKEKLGEGQFGEVHLCEVDSPQDLVSLDFPLNVRKGHPLLVAVKILRPDATKNARNDFLKEVKIMSRLKDPNIIRLLGVCVQDDPLCMITDYMENGDLNQFLSAHQLEDKAAEGAPGDGQAAQGPTISYPMLLHVAAQIASGMRYLATLNFVHRDLATRNCLVGENFTIKIADFGMSRNLYAGDYYRVQGRAVLPIRWMAWECILMGKFTTASDVWAFGVTLWEVLMLCRAQPFGQLTDEQVIENAGEFFRDQGRQVYLSRPPACPQGLYELMLRCWSRESEQRPPFSQLHRFLAEDALNTV [DDR1]”, the thermal stability score turned out to be 0.0856 under setting [1] and 0.38 (cell cycle stage: mitosis).
The like results for “MGSQGSPVKSYDYLLKFLLVGDSDVGKGEILESLQDGAAESPYAYSNGIDYKTTTILLDGRRVKLELWDTSGQGRFCTIFRSYSRGAQGILLVYDITNRWSFDGIDRWIKEIDEHAPGVPRILVGNRLHLAFKRQVPTEQARAYAEKNCMTFFEVSPLCNFNVIESFTELSRIVLMRHGMEKIWRPNRVFSLQDLCCRAIVSCTPVHLIDKLPLPVTIKSHLKSFSMANGMNAVMMHGRSYSLASGAGGGGSKGNSLKRSKSIRPPQSPPQNCSRSNCKIS [RAB40C]” were, in that order, -0.589 and -0.612.
Regarding “MLLLVTSLLLCELPHPAFLLIPEKSDLRTVAPASSLNVRFDSRTMNLSWDCQENTTFSKCFLTDKKNRVVEPRLSNNECSCTFREICLHEGVTFEVHVNTSQRGFQQKLLYPNSGREGTAAQNFSCFIYNADLMNCTWARGPTAPRDVQYFLYIRNSKRRREIRCPYYIQDSGTHVGCHLDNLSGLTSRNYFLVNGTSREIGIQFFDSLLDTKKIERFNPPSNVTVRCNTTHCLVRWKQPRTYQKLSYLDFQYQLDVHRKNTQPGTENLLINVSGDLENRYNFPSSEPRAKHSVKIRAADVRILNWSSWSEAIEFGSDDGNLGSVYIYVLLIVGTLVCGIVLGFLFKRFLRIQRLFPPVPQIKDKLNDNHEVEDEIIWEEFTPEEGKGYREEVLTVKEIT [CSF2RA]”, the thermal stability score by setting is: under setting [1], -1.1; (cell cycle stage: mitosis) -1.35.
The like results for “MLRCGGRGLLLGLAVAAAAVMAARLMGWWGPRAGFRLFIPEELSRYRGGPGDPGLYLALLGRVYDVSSGRRHYEPGSHYSGFAGRDASRAFVTGDCSEAGLVDDVSDLSAAEMLTLHNWLSFYEKNYVCVGRVTGRFYGEDGLPTPALTQVEAAITRGLEANKLQLQEKQTFPPCNAEWSSARGSRLWCSQKSGGVSRDWIGVPRKLYKPGAKEPRCVCVRTTGPPSGQMPDNPPHRNRGDLDHPNLAEYTGCPPLAITCSFPL [CYB5D2]” were, in that order, 0.86 and -0.244.
The like results for “MRVLVGGGTGFIGTALTQLLNARGHEVTLVSRKPGPGRITWDELAASGLPSCDAAVNLAGENILNPLRRWNETFQKEVIGSRLETTQLLAKAITKAPQPPKAWVLVTGVAYYQPSLTAEYDEDSPGGDFDFFSNLVTKWEAAARLPGDSTRQVVVRSGVVLGRGGGAMGHMLLPFRLGLGGPIGSGHQFFPWIHIGDLAGILTHALEANHVHGVLNGVAPSSATNAEFAQTLGAALGRRAFIPLPSAVVQAVFGRQRAIMLLEGQKVIPQRTLATGYQYSFPELGAALKEIVA [SDR39U1]” were, in that order, -0.328 and -0.0339.
As to “MSEDEEKVKLRRLEPAIQKFIKIVIPTDLERLRKHQINIEKYQRCRIWDKLHEEHINAGRTVQQLRSNIREIEKLCLKVRKDDLVLLKRMIDPVKEEASAATAEFLQLHLESVEELKKQFNDEETLLQPPLTRSMTVGGAFHTTEAEASSQSLTQIYALPEIPQDQNAAESWETLEADLIELSQLVTDFSLLVNSQQEKIDSIADHVNSAAVNVEEGTKNLGKAAKYKLAALPVAGALIGGMVGGPIGLLAGFKVAGIAAALGGGVLGFTGGKLIQRKKQKMMEKLTSSCPDLPSQTDKKCS [STX17]”, the thermal stability score is -0.17 under setting [1] and 0.13 (cell cycle stage: mitosis).
In turn, “MSKMPAKKKSCFQITSVTTAQVATSITEDTESLDDPDESRTEDVSSEIFDVSRATDYGPEEVCERSSSEETLNNVGDAETPGTVSPNLLLDGQLAAAAAAPANGGGVVSARSVSGALASTLAAAATSAPAPGAPGGPQLAGSSAGPVTAAPSQPPTTCSSRFRVIKLDHGSGEPYRRGRWTCMEYYERDSDSSVLTRSGDCIRHSSTFDQTAERDSGLGATGGSVVVVVASMQGAHGPESGTDSSLTAVSQLPPSEKMSQPTPAQPQSFSVGQPQPPPPPVGGAVAQSSAPLPPFPGAATGPQPMMAAAQPSQPQGAGPGGQTLPPTNVTLAQPAMSLPPQPGPAVGAPAAQQPQQFAYPQPQIPPGHLLPVQPSGQSEYLQQHVAGLQPPSPAQPSSTGAAASPATAATLPVGTGQNASSVGAQLMGASSQPSEAMAPRTGPAQGGQVAPCQPTGVPPATVGGVVQPCLGPAGAGQPQSVPPPQMGGSGPLSAVPGGPHAVVPGVPNVPAAVPAPSVPSVSTTSVTMPNVPAPLAQSQQLSSHTPVSRSSSIIQHVGLPLAPGTHSAPTSLPQSDLSQFQTQTQPLVGQVDDTRRKSEPLPQPPLSLIAENKPVVKPPVADSLANPLQLTPMNSLATSVFSIAIPVDGDEDRNPSTAFYQAFHLNTLKESKSLWDSASGGGVVAIDNKIEQAMDLVKSHLMYAVREEVEVLKEQIKELVERNSLLERENALLKSLSSNDQLSQLPTQQANPGSTSQQQAVIAQPPQPTQPPQQPNVSSA [TSC22D2]” registered a thermal stability score under setting [1] of 0.461 and a thermal stability score (cell cycle stage: mitosis) of 0.468.
With “MTGEKIRSLRRDHKPSKEEGDLLEPGDEEAAAALGGTFTRSRIGKGGKACHKIFSNHHHRLQLKAAPASSNPPGAPALPLHNSSVTANSQSPALLAGTNPVAVVADGGSCPAHYPVHECVFKGDVRRLSSLIRTHNIGQKDNHGNTPLHLAVMLGNKECAHLLLAHNAPVKVKNAQGWSPLAEAISYGDRQMITALLRKLKQQSRESVEEKRPRLLKALKELGDFYLELHWDFQSWVPLLSRILPSDACKIYKQGINIRLDTTLIDFTDMKCQRGDLSFIFNGDAAPSESFVVLDNEQKVYQRIHHEESEMETEEEVDILMSSDIYSATLSTKSISFTRAQTGWLFREDKTERVGNFLADFYLVNGLVLESRKRREHLSEEDILRNKAIMESLSKGGNIMEQNFEPIRRQSLTPPPQNTITWEEYISAENGKAPHLGRELVCKESKKTFKATIAMSQEFPLGIELLLNVLEVVAPFKHFNKLREFVQMKLPPGFPVKLDIPVFPTITATVTFQEFRYDEFDGSIFTIPDDYKEDPSRFPDL [ANKRD13C]”, the thermal stability score by setting is: under setting [1], -0.894; (cell cycle stage: mitosis) -0.663.
